{"source": "paper doi:10.1101/580076", "target": "HAdV-D26 fiber-knob protein (human adenovirus D serotype 26 (HAdV-D26))", "test": "crystal structure"}
{"substance": "HAdV-D26 fiber-knob protein (domain or fragment)", "values": [{"measurement": "stoichiometry N", "value": 3}]}
